These results are taken from patent publication US20060003399.

Data set [1] concerns Full length human N-WASP, TAP-tagged at the C-terminus (Myc-N-WASP-TAP).
The subject of data set [2] is Full length human WASP, TAP-tagged at the C-terminus (Myc-WASP-TAP).

With GST-tev-Rac1, the “actin polymerization at higher activator concentrations” value in data set [1] was “At higher concentrations, Nck1, Nck2 and Rac1 inhibited WASP- and N-WASP-stimulated actin polymerization”; in data set [2], “At higher concentrations, Nck1, Nck2 and Rac1 inhibited WASP- and N-WASP-stimulated actin polymerization”.
